B1: TMEM106C (parent)
chain: YVTTNVSLIPPRSEQLVNFTGKAE

Variants of: B1
Assay: protein stability index of a GFP-peptide fusion (GPS, HEK-293T) (PSI 1-6); higher = more stable
Conditions: c terminus: a fixed tail appended
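Also: lentivirally expressed fusions sorted by FACS into six bins by GFP to DsRed ratio, PSI derived from sequencing read proportions per bin multiplied by bin number.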

Row | Variant | protein stability index
1 | YVTTNVSLIPPRSETLVNFTGKAE [Q15T] | 2.23
2 | YVTTNVSLIPPRSECLVNFTGKAE [Q15C] | 2.24
3 | YVTTNVSLIPPRSEVLVNFTGKAE [Q15V] | 2.17
4 | YVTTNVSLIPPRSEELVNFTGKAE [Q15E] | 2.07
5 | YVTTNVSLIPPRSELLVNFTGKAE [Q15L] | 2.69
6 | YVTTNVSLIPPRSEYLVNFTGKAE [Q15Y] | 2.69
7 | YVTTNVSLIPPRSEGLVNFTGKAE [Q15G] | 2.37
8 | YVTTNVSLIPPRSEMLVNFTGKAE [Q15M] | 1.7
9 | YVTTNVSLIPPRSESLVNFTGKAE [Q15S] | 1.96
10 | YVTTNVSLIPPRSEHLVNFTGKAE [Q15H] | 2.33
11 | YVTTNVSLIPPRSEALVNFTGKAE [Q15A] | 1.5
12 | YVTTNVSLIPPRSEPLVNFTGKAE [Q15P] | 2.28
13 | YVTTNVSLIPPRSEFLVNFTGKAE [Q15F] | 1.5
14 | YVTTNVSLIPPRSEKLVNFTGKAE [Q15K] | 1.43
15 | YVTTNVSLIPPRSEILVNFTGKAE [Q15I] | 2.37
16 | YVTTNVSLIPPRSEDLVNFTGKAE [Q15D] | 2.08
17 | YVTTNVSLIPPRSENLVNFTGKAE [Q15N] | 1.55
18 | YVTTNVSLIPPRSEWLVNFTGKAE [Q15W] | 1.86
19 | YVTTNVSLIPPRSERLVNFTGKAE [Q15R] | 1.74
20 | YVTTNVSLIPPRSEQLVNFFGKAE [T20F] | 2.31
21 | YVTTNVSLIPPRSEQLVNFCGKAE [T20C] | 2.34
22 | YVTTNVSLIPPRSEQLVNFAGKAE [T20A] | 2.27
23 | YVTTNVSLIPPRSEQLVNFNGKAE [T20N] | 1.53
24 | YVTTNVSLIPPRSEQLVNFWGKAE [T20W] | 2.85

Row | Variant | protein stability index
25 | YVTTNVSLIPPRSEQLVNFYGKAE [T20Y] | 2.86
26 | YVTTNVSLIPPRSEQLVNFGGKAE [T20G] | 2.13
27 | YVTTNVSLIPPRSEQLVNFMGKAE [T20M] | 3.02
28 | YVTTNVSLIPPRSEQLVNFHGKAE [T20H] | 1.86
29 | YVTTNVSLIPPRSEQLVNFQGKAE [T20Q] | 1.66
30 | YVTTNVSLIPPRSEQLVNFPGKAE [T20P] | 2.29
31 | YVTTNVSLIPPRSEQLVNFKGKAE [T20K] | 2.11
32 | YVTTNVSLIPPRSEQLVNFSGKAE [T20S] | 1.51
33 | YVTTNVSLIPPRSEQLVNFIGKAE [T20I] | 2.08
34 | YVTTNVSLIPPRSEQLVNFDGKAE [T20D] | 1.95
35 | YVTTNVSLIPPRSEQLVNFRGKAE [T20R] | 2.19
36 | YVTTNVSLIPPRSEQLVNFLGKAE [T20L] | 1.99
37 | YVTTNVSLIPPRSEQLVNFEGKAE [T20E] | 2.09
38 | YVTTNVSLIPPRSEQLVNFVGKAE [T20V] | 1.84
39 | YVTTNVSLIPPRSEQLDNFTGKAE [V17D] | 2.2
40 | YVTTNVSLIPPRSEQLFNFTGKAE [V17F] | 2.88
41 | YVTTNVSLIPPRSEQLQNFTGKAE [V17Q] | 3.85
42 | YVTTNVSLIPPRSEQLMNFTGKAE [V17M] | 2.04
43 | YVTTNVSLIPPRSEQLANFTGKAE [V17A] | 1.84
44 | YVTTNVSLIPPRSEQLINFTGKAE [V17I] | 2.24
45 | YVTTNVSLIPPRSEQLPNFTGKAE [V17P] | 2.31
46 | YVTTNVSLIPPRSEQLCNFTGKAE [V17C] | 2.19
47 | YVTTNVSLIPPRSEQLENFTGKAE [V17E] | 2.24
48 | YVTTNVSLIPPRSEQLHNFTGKAE [V17H] | 2.1

Row | Variant | protein stability index
49 | YVTTNVSLIPPRSEQLGNFTGKAE [V17G] | 1.98
50 | YVTTNVSLIPPRSEQLWNFTGKAE [V17W] | 3.01
51 | YVTTNVSLIPPRSEQLYNFTGKAE [V17Y] | 2.44
52 | YVTTNVSLIPPRSEQLLNFTGKAE [V17L] | 2.3
53 | YVTTNVSLIPPRSEQLTNFTGKAE [V17T] | 1.91
54 | YVTTNVSLIPPRSEQLSNFTGKAE [V17S] | 1.55
55 | YVTTNVSLIPPRSEQLNNFTGKAE [V17N] | 1.62
56 | YVTTNVSLIPPRSEQLRNFTGKAE [V17R] | 1.41
57 | YVTTNVSLIPPRSEQLKNFTGKAE [V17K] | 2.83
58 | YVTTNVSLIPPRSHQLVNFTGKAE [E14H] | 1.92
59 | YVTTNVSLIPPRSTQLVNFTGKAE [E14T] | 2.79
60 | YVTTNVSLIPPRSPQLVNFTGKAE [E14P] | 2.18
61 | YVTTNVSLIPPRSKQLVNFTGKAE [E14K] | 2.16
62 | YVTTNVSLIPPRSFQLVNFTGKAE [E14F] | 1.99
63 | YVTTNVSLIPPRSNQLVNFTGKAE [E14N] | 1.8
64 | YVTTNVSLIPPRSWQLVNFTGKAE [E14W] | 2
65 | YVTTNVSLIPPRSVQLVNFTGKAE [E14V] | 2
66 | YVTTNVSLIPPRSLQLVNFTGKAE [E14L] | 2.27
67 | YVTTNVSLIPPRSIQLVNFTGKAE [E14I] | 2.17
68 | YVTTNVSLIPPRSDQLVNFTGKAE [E14D] | 1.46
69 | YVTTNVSLIPPRSYQLVNFTGKAE [E14Y] | 2.19
70 | YVTTNVSLIPPRSGQLVNFTGKAE [E14G] | 1.59
71 | YVTTNVSLIPPRSRQLVNFTGKAE [E14R] | 1.87
72 | YVTTNVSLIPPRSAQLVNFTGKAE [E14A] | 2.11

Row | Variant | protein stability index
73 | YVTTNVSLIPPRSSQLVNFTGKAE [E14S] | 1.79
74 | YVTTNVSLIPPRSMQLVNFTGKAE [E14M] | 2.26
75 | YVTTNVSLIPPRSQQLVNFTGKAE [E14Q] | 1.5
76 | YVTTNVSLIPPRSEQLVNFTTKAE [G21T] | 1.86
77 | YVTTNVSLIPPRSEQLVNFTDKAE [G21D] | 2.71
78 | YVTTNVSLIPPRSEQLVNFTMKAE [G21M] | 3.92
79 | YVTTNVSLIPPRSEQLVNFTSKAE [G21S] | 1.6
80 | YVTTNVSLIPPRSEQLVNFTEKAE [G21E] | 2.49
81 | YVTTNVSLIPPRSEQLVNFTAKAE [G21A] | 1.99
82 | YVTTNVSLIPPRSEQLVNFTYKAE [G21Y] | 3.28
83 | YVTTNVSLIPPRSEQLVNFTRKAE [G21R] | 2.32
84 | YVTTNVSLIPPRSEQLVNFTNKAE [G21N] | 2.75
85 | YVTTNVSLIPPRSEQLVNFTQKAE [G21Q] | 2.3
86 | YVTTNVSLIPPRSEQLVNFTLKAE [G21L] | 1.58
87 | YVTTNVSLIPPRSEQLVNFTHKAE [G21H] | 2.1
88 | YVTTNVSLIPPRSEQLVNFTPKAE [G21P] | 3.07
89 | YVTTNVSLIPPRSEQLVNFTCKAE [G21C] | 1.83
90 | YVTTNVSLIPPRSEQLVNFTVKAE [G21V] | 2.12
91 | YVTTNVSLIPPRSEQLVNFTWKAE [G21W] | 2.5
92 | YVTTNVSLIPPRSEQLVNFTFKAE [G21F] | 2.77
93 | YVTTNVSLIPPRSEQLVNFTKKAE [G21K] | 1.59
94 | YVTTNVSLIPPRSEQLVNFTIKAE [G21I] | 2.1

From the supplement of paper PMC10567573
